According to US10081661:

Legend:
Experiment in all cases: cell_activity
[1] = system: ZFN SBS#47863 (human albumin); details: paired with 47898; K562
[2] = system: ZFN SBS#47864 (human albumin); details: paired with 47931; HepG2
[3] = system: ZFN SBS#47171 (human albumin); details: paired with 47079; K562, 75 ng mRNA
[4] = system: ZFN SBS#47192 (human albumin); details: paired with 47079; K562
[5] = system: ZFN SBS#47169 (human albumin); details: paired with 47171; HepG2, 100 ng mRNA each
[6] = system: ZFN SBS#47898 (human albumin); details: paired with 47863; K562
[7] = system: ZFN SBS#47931 (human albumin); details: paired with 47863; K562
[8] = system: ZFN SBS#40477 (human albumin); details: paired with 47192; HepG2
[9] = system: ZFN SBS#47079 (human albumin); details: paired with 47863; K562

Sequence: TTTGGGATAGTTATGAATTCAATCTTCA (double strand) [human albumin site]
- activity [1]: 91.9 % indels
- activity [2]: 21.3 % indels
- activity [3]: 79.4 % indels
- activity [4]: 77.9 % indels

Sequence: CCTATCCATTGCACTATGCTTTATTTAA (double strand) [human/rhesus albumin site]
- activity [5]: 22.2 % indels
- activity [6]: 91.9 % indels
- activity [7]: 78.9 % indels
- activity [8]: 23.7 % indels
- activity [9]: 86.8 % indels
